Assay results reported in patent publication US20120122125A1 (AbbVie / Abbott, published 2012).
Residue numbers refer to the chain shown, from its start.

Legend:
[1] = target: T1, Chagas FP10 recombinant antigen (Trypanosoma cruzi); assay: SPR, BIAcore 2000; His6-tagged FP10 captured on anti-His4, chimeric antibody injected
T1 construct: also called T. cruzi antigen FP10
T1 chain: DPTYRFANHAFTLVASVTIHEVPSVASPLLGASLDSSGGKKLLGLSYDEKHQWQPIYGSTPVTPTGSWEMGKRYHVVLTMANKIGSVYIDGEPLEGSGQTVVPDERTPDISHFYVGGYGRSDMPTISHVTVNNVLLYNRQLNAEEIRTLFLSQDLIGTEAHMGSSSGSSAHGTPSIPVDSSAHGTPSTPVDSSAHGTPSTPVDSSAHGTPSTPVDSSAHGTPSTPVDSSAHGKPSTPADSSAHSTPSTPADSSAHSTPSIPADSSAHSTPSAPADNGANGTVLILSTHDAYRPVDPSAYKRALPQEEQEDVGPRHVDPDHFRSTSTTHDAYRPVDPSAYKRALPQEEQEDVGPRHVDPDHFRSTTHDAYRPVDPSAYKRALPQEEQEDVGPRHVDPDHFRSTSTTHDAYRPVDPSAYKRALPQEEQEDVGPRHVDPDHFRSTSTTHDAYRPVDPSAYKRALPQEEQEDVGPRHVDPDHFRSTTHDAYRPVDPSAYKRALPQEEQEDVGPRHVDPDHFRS

[2] = target: T2, Chagas FP3 recombinant antigen (Trypanosoma cruzi); assay: SPR, BIAcore 2000; His6-tagged FP3 captured on anti-His4, chimeric antibody injected 0-300 nM
T2 construct: also called T. cruzi antigen FP3; not shown: His6 tag at the amino end, from the pET vector
T2 chain: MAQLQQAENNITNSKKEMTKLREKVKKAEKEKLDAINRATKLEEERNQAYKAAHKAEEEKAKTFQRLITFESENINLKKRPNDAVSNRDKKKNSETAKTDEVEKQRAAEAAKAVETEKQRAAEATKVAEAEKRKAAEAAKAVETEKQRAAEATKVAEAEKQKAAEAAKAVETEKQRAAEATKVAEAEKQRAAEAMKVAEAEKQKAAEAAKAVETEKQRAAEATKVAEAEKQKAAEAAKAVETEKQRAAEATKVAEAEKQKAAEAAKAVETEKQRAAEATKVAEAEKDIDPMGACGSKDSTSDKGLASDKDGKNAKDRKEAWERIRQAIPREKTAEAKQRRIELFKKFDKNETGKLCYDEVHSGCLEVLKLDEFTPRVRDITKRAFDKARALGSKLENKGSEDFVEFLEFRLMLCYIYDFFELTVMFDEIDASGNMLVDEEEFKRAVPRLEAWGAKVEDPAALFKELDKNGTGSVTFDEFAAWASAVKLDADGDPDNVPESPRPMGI

[3] = target: T3, Chagas FRA antigen (Trypanosoma cruzi); assay: SPR, BIAcore 2000; murine mAb captured on rabbit anti-mouse IgG, FRA injected
T3 construct: also called FRA-domain; recombinant FRA antigen
T3 chain: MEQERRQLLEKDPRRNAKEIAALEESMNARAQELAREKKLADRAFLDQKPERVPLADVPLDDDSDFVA

[4] = target: T2, Chagas FP3 recombinant antigen; assay: SPR, BIAcore 2000; murine mAb captured on rabbit anti-mouse IgG, FP3 injected
[5] = target: Chagas TcF recombinant antigen (Trypanosoma cruzi); assay: SPR, BIAcore 2000; murine mAb captured on rabbit anti-mouse IgG, TcF injected 0-200 nM
[6] = target: T4, Pep2 antigen (Trypanosoma cruzi); assay: SPR, BIACORE; chimeric antibody from transient COS 7L expression; the antigen is not given
T4 construct: The form of Pep2 coated in the anti-Pep2 microtiter EIA is not described; also called TcF Pep2 peptide
T4 peptide: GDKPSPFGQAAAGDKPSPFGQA

[7] = target: Chagas TcF recombinant antigen (Trypanosoma cruzi); assay: SPR, BIAcore 2000; chimeric antibody captured on goat anti-human IgG Fc, TcF injected 0-100 nM
[8] = target: T2, Chagas FP3 recombinant antigen; assay: SPR, BIAcore 2000; His6-tagged FP3 captured on anti-His4, chimeric antibody injected
[9] = target: T2, Chagas FP3 recombinant antigen; assay: SPR, BIAcore 2000; murine mAb captured on rabbit anti-mouse IgG, FP3 injected 0-200 nM
[10] = target: T1, Chagas FP10 recombinant antigen; assay: SPR, BIAcore 2000; murine mAb captured on rabbit anti-mouse IgG, FP10 injected
[11] = target: Chagas recombinant antigen FP6 (Trypanosoma cruzi); assay: SPR, BIAcore 2000; murine mAb captured on rabbit anti-mouse IgG, FP6 injected 0-200 nM
[12] = target: T3, Chagas FRA antigen; assay: SPR, BIAcore 2000; murine mAb captured on rabbit anti-mouse IgG, FRA injected 0-200 nM
[13] = target: T1, Chagas FP10 recombinant antigen; assay: SPR, BIAcore 2000; His6-tagged FP10 captured on anti-His4, chimeric antibody injected 0-300 nM
[14] = target: T1, Chagas FP10 recombinant antigen; assay: SPR, BIAcore 2000; murine mAb captured on rabbit anti-mouse IgG, FP10 injected 0-200 nM

B1: recombinant chimeric (mouse-human) anti-Chagas monoclonal antibody 12-392-150 (FP3) (antibody, V domains shown)
VH: DVQLVESGGGLVQPGGSRKLSCAASGFTFSVFGMHWVRQAPEKGLEWVAYISSGSTIIYYADTVKGRFTISRDNPKNTLFLQMTGLRSEDTAMYYCARPLYYDYDDYAMDYWGQGTSVTVSS
VL: YIVMSQSPSSLAVSAGEKVTMSCKSSQSLLNSRTRKNHLAWYQQKPGQSPKLLIYWASTRESGVPDRFTGSGSGTDFALTISSVQAEDLAVYFCKQSYNLYTFGAGTKLELK
notes: Mouse VH and VL of hybridoma HBFP3 joined to human IgG1 (z, non-a) and human kappa constant regions; the summary and the claims swap them; also called Chimeric Chagas Ab 12-392-150; Chagas FP3 12-392-150CHO2580-104
[1]
  binding result: no binding (tested: 0 to 300 nM antibody)
[2]
  Kd: 0.14 nM
  koff: 0.00038 s⁻¹
  kon: 2.7e+06 M⁻¹ s⁻¹

B2: murine anti-Chagas monoclonal antibody 9-638-132 (Pep2 epitope in TcF and FP6) (antibody, V domains shown)
VH: QVQLQQPGAELVRPGASVKLSCKASGYTFTSYWMNWVKLRPGQGLEWIGMIDPSDSETYYDQVFKDKATLTVDKSSSTAYMHLSSLTSEDSAVYYCARWITTDSYTMDYWGQGTSVTVSS
VL: B1 VL with Y1D, K18Q, L30F, H38Y, A78T, F93Y, Y101L
notes: Mouse hybridoma mAb; captured by anti-mouse IgG; also called Murine Chagas Ab 9-638-132; hybrid 9-638
[3]
  binding result: no binding (tested: 0 to 200 nM antigen)
[4]
  binding result: no binding (tested: 0 to 200 nM antigen)
[5]
  Kd: 5.7 nM
  koff: 0.012 s⁻¹
  kon: 2.1e+06 M⁻¹ s⁻¹

B3: recombinant chimeric (mouse-human) anti-Chagas monoclonal antibody 9-638-132 (Pep2 epitope in TcF and FP6) (antibody, V domains shown)
VH: B2 VH
VL: B1 VL with Y1D, K18Q, L30F, H38Y, A78T, F93Y, Y101L
notes: Mouse VH and VL of hybridoma HBPep2 joined to human IgG1 (z, non-a) and human kappa constant regions; the summary and the claims swap them; also called Chimeric Chagas Ab 9-638-132; Chagas Pep2 9-638-1928
[6]
  Kd: ~2.6 nM
[1]
  binding result: no binding (tested: 0 to 300 nM antibody)
[7]
  Kd: 4.1 nM
  koff: 0.017 s⁻¹
  kon: 4e+06 M⁻¹ s⁻¹
[8]
  binding result: no binding (tested: 0 to 300 nM antibody)

B4: murine anti-Chagas monoclonal antibody 12-392-150 (FP3) (antibody, V domains shown)
VH: B1 VH
VL: B1 VL
notes: Mouse hybridoma mAb; captured by anti-mouse IgG; also called Murine Chagas Ab 12-392-150; hybrid 12-392
[3]
  binding result: no binding (tested: 0 to 200 nM antigen)
[9]
  Kd: 0.08 nM
  koff: 5e-05 s⁻¹
  kon: 560000 M⁻¹ s⁻¹
[10]
  binding result: no binding (tested: 0 to 200 nM antigen)

B5: murine anti-Chagas monoclonal antibody 8-367-171 (FRA) (antibody, V domains shown)
VH: EVQLQQSGAELVKPGASVKLSCTASGFNIKDTYMHWVKQRPEQGLEWIGRIDPANGNTKYDPKFQGKATITTDTSSNTAYLQLSSLTSEDTAVYYCATSYYGNYVAYWGHGTLVTVSA
VL: DIQMDQSPSSLSASLGDTITITCHASQNINVWLSWYQQKPGNIPKLLIYKASNLHTGVPSRFSGSGSGTGFTLTISSLQPEDIATYYCQQGQSYPLTFGSGRKLEIK
notes: Mouse hybridoma mAb; captured by anti-mouse IgG
[4]
  binding result: no binding (tested: 0 to 200 nM antigen)
[11]
  Kd: 5.2 nM
  koff: 0.0079 s⁻¹
  kon: 1.5e+06 M⁻¹ s⁻¹
[10]
  binding result: no binding (tested: 0 to 200 nM antigen)
[12]
  Kd: 37 nM
  koff: 0.13 s⁻¹
  kon: 3.6e+06 M⁻¹ s⁻¹

B6: recombinant chimeric (mouse-human) anti-Chagas monoclonal antibody 10-745-140 (FP10) (antibody, V domains shown)
VH: QVQLQQPGAELVKPGASVKMSCKASGYTFTSYWVHWVKQRPGQGLEWIGVIDPSDSYTSYNQKFKGKATLTVDTSSSTAYMQLSSLTSEDSAVYYCTRHYDFDSWYFDVWGAGTTVTVSS
VL: DVVMTQTPLSLPVSLGDQASISCRSSQSLVHSNGNTYLHWYLQKPGQSPKLLIYKVSNRFSGVPDRFSGSGSGTDFTLKISRVEAEDLGVYFCSQSTHVPPTFGGGTKLEIK
notes: Mouse VH and VL of hybridoma HBFP10 joined to human IgG1 (z, non-a) and human kappa constant regions; the summary and the claims swap them; also called Chimeric Chagas Ab 10-745-140; Chagas FP10 10-745-3796
[13]
  Kd: 2.9 nM
  koff: 0.00036 s⁻¹
  kon: 120000 M⁻¹ s⁻¹
[8]
  binding result: no binding (tested: 0 to 300 nM antibody)

B7: murine anti-Chagas monoclonal antibody 10-745-140 (FP10) (antibody, V domains shown)
VH: B6 VH
VL: B6 VL
notes: Mouse hybridoma mAb; captured by anti-mouse IgG; also called Murine Chagas Ab 10-745-140; Chagas 10-745-140
[14]
  Kd: 1.9 nM
  koff: 0.00022 s⁻¹
  kon: 110000 M⁻¹ s⁻¹
